Measured values reported in PMC3636998.
Each block holds one substance with its values, some of them ahead of it.

How the values were obtained:
DGLα = DGLα (UniProt Q9Y4D2); assay: anti-V5 co-immunoprecipitation, CaMKIIα blot; settings: reference: wild type CaMKIIα; sites T286
[1] = target: DGLα C-terminal domain, 761-1042 (UniProt Q9Y4D2); assay: GST cosedimentation, CaMKII blot; settings: reference: non-phosphorylated CaMKIIα; sites T286
[2] = target: DGLα-V5 (full-length diacylglycerol lipase-α with a C-terminal V5-epitope tag) (UniProt Q9Y4D2); assay: co-IP
[3] = target: GST fusion protein containing the C-terminal domain (CTD; residues 761-1042) of DGLα (UniProt Q9Y4D2); assay: pull-down

percent of reference (DGLα): weaker; reference 100±5%
Substance: CaMKIIα (from UniProt P11798) T286A

other: bound CaMKII normalised to input aliquot [1]: gained; reference 0.11±0.03
Substance: CaMKIIα (from UniProt P11798) Thr286-autophosphorylated CaMKIIα

interaction with DGLα-V5, percent of WT [2]: 100%
Substance: WT CaMKIIα expressed in HEK293T cells (from UniProt P11798 1-478) (enzyme)

CaMKII detected, normalized to the input [3]: 0.37
Substance: purified Thr286-autophosphorylated CaMKIIα (from UniProt P11798 1-478) (enzyme)
